# Results as given in the supplement of paper PMC7125110.
# ± gives the standard error. For some of these results: This sample holds only a part of the variants without activity.
# B1: glmS ribozyme (parent)
# chain: AUAAAAGCGCCAGAACUACAGAAAUGUAGUUGACGAGGAGGAGGUUUAUCGAAUUUUCGGCGGAUGCCUCCAAA
# Columns and labels:
# Details in all cases: with glucosamine-6-phosphate
# glucosamine-6-phosphate [1] = variants of: B1; experiment: kcat; higher = faster cleavage; RNA array
# Procedure, shortened: (§1)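 In situ transcription by E. coli RNA polymerase produced barcoded ribozyme variants on sequenced MiSeq chips, and a hybridised Cy3 probe tracked them at 37 °C. Glucosamine-6-phosphate was flowed in at 40 μM to 10 mM in HEPES/KCl/Mg(OAc)2 buffer. kcat and KM were taken from weighted Michaelis–Menten fits of kobs values from exponential decay fits.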
# glucosamine-6-phosphate [2] = variants of: B1; experiment: KM; higher = weaker cofactor use; RNA array
# Procedure, shortened: as §1
# glucosamine-6-phosphate [3] = variants of: B1; experiment: self-cleavage kobs at 40 uM GlcN6P; higher = faster cleavage; RNA array
# Procedure, shortened: as §1
# glucosamine-6-phosphate [4] = variants of: B1; experiment: self-cleavage kobs at 160 uM GlcN6P; higher = faster cleavage; RNA array
# Procedure, shortened: as §1
# glucosamine-6-phosphate [5] = variants of: B1; experiment: self-cleavage kobs at 640 uM GlcN6P; higher = faster cleavage; RNA array
# Procedure, shortened: as §1
# glucosamine-6-phosphate [6] = variants of: B1; experiment: self-cleavage kobs at 2500 uM GlcN6P; higher = faster cleavage; RNA array
# Procedure, shortened: as §1
# glucosamine-6-phosphate [7] = variants of: B1; experiment: self-cleavage kobs at 10000 uM GlcN6P; higher = faster cleavage; RNA array
# Procedure, shortened: as §1
Variant,kcat (glucosamine-6-phosphate [1]) [s⁻¹],KM (glucosamine-6-phosphate [2]) [µM],self-cleavage kobs at 40 uM GlcN6P (glucosamine-6-phosphate [3]) [s⁻¹],self-cleavage kobs at 160 uM GlcN6P (glucosamine-6-phosphate [4]) [s⁻¹],self-cleavage kobs at 640 uM GlcN6P (glucosamine-6-phosphate [5]) [s⁻¹],self-cleavage kobs at 2500 uM GlcN6P (glucosamine-6-phosphate [6]) [s⁻¹],self-cleavage kobs at 10000 uM GlcN6P (glucosamine-6-phosphate [7]) [s⁻¹]
G37A U55G,0.0025 ± 0.0004,2980 ± 830,2.68e-05 ± 1.3e-05,0.000204 ± 6.7e-05,0.000401 ± 9.1e-05,0.00122 ± 0.0002,0.00188 ± 0.00028
G37A U55C,0.000802 ± 5.9e-05,2180 ± 260,,5.1e-05 ± 1.1e-05,0.000189 ± 2e-05,0.000404 ± 5.6e-05,0.000676 ± 8.7e-05
G37A U55A,0.00489 ± 0.0022,,0.000128 ± 5.4e-05,0.000133 ± 2.8e-05,0.000667 ± 0.00015,0.00226 ± 0.00037,0.00286 ± 0.00068
A39G A52U,0.00125 ± 0.00024,,< 1e-05,,4.99e-05 ± 2.1e-05,0.000222 ± 4.6e-05,0.00054 ± 7.6e-05
G37C C50U,< 1e-05,,,,,,< 1e-05
A39C U47C,0.00157 ± 0.00025,2020 ± 510,4.25e-05 ± 5.6e-06,0.000105 ± 1.6e-05,0.000327 ± 3.9e-05,0.000934 ± 0.00011,0.00131 ± 0.00011
G40A A64C,6.62e-05 ± 1.1e-05,,,,,,5.19e-05 ± 1.5e-05
G35U G51C,< 1e-05,,,< 1e-05,< 1e-05,,
A39G C70G,0.000172 ± 3.8e-05,,0.000112 ± 1.6e-05,0.000143 ± 2.3e-05,0.000314 ± 4.7e-05,0.000245 ± 3.2e-05,0.000132 ± 1.8e-05
A39G C70A,0.000304 ± 4.8e-05,158 ± 60,6.17e-05 ± 1.2e-05,0.000136 ± 3.1e-05,0.000306 ± 4.3e-05,0.000172 ± 7.3e-05,0.000303 ± 5e-05
G38U G63A,< 1e-05,,< 1e-05,< 1e-05,,,
A36G C71G,1.32e-05 ± 3.6e-06,,,,< 1e-05,,
G37U U69G,4.56e-05 ± 1.6e-05,,,3.74e-05 ± 8.6e-06,6.88e-05 ± 1.5e-05,,
G37C,5.32e-05 ± 1.7e-06,1380 ± 210,,,1.88e-05 ± 1.5e-06,3.22e-05 ± 1.5e-06,4.71e-05 ± 8.5e-07
G37U,< 1e-05,,,,,< 1e-05,< 1e-05
